The nature of the data set: label from the status in PepcDB records.
With “MLVWLSDSQAVALVGLVGGIALGLAARLGRFCTLGAIEDLLYGGSDVRMRMWVLAIGAAMAGSFGLMGLGWLDPGQSYYLSIRWMPLASILGGLMFGYGMALAGNCGYGSIARLGGGDLRAFVIVLVMGVFTYVTLAGPLAPLRNLLFPQIEVAGDLPPGLAHHAHALTGLPVHVIGIGIGLILCLGALSSRDMRQEPKSIFWSLVVAAAIVGGWAGSYWVYQHGFDGLQVVSHSFSAPVGESILYAMTGSVRPLSFAVGSVAGVWAGAFIGSLIKGHFRWEACEDPRELRRQILGAAIMGTGAVIAMGCTVGQGLTAFSLLAISAPVTFLAIFAGAALGLRQLIEGFSAAE”, the protein production entry was “failed”.

Take “MLWARLVGLARLEARALSKKERRSLLERLKPYYTRIPFSEKADLRLVKARTDSGEYEIITVDGVPCLFEWSDGRIYPTLQCLKAFGVDWLKGVVLVDKGAAIALAKGAHLMIPGVVGVEGSFTRGDVVAALYHETRTPVMVGVAEVDSSALEKLYREKARGRAVRRVHRLGDALWELAQEVGKRLS”: the protein production entry was “not failed”.

Regarding “MLYLKRILIVGLSFVVGLINIIGNNYTVFALEKNTLVHQNVMSMIQSQRGGLFDPIYTESLEDNWQGDYIYYGEDTDGSALKWQLLDSDNKDFSKNANSTMFLFSDKTIGTSFWYRENDYGFDYSNVKPGETPIYWQKGYEWDKSDLKTNMEDEMKNKFSSIENEGIIFSSKSSEDAQNVAVGLEKLGTTEMTASKWFPLSIQELTNKCYGFSSVPFNRNQAPLGLHTGDKSRVSSDDKNYLIRSYEEHWTKPMENGMRYHPVFVLNSNSVYGANCAGGLNYGNMYTVQSMRPAMNIDTSKVMLVKSHNQKEIIGIKAVNDSKTNEFKLTLLDDKQKLNIENIKTERDKITFDFEAIGNGKYLSVVVQDENNNVMYYGNIKDNLDKVNVGTMTIDLNQIGLNSKSFSSGEYKLSIFTEQLNFDKKTDYSSKFVDVEVVQNNVPPAVINKVPTIVAEDKVLTVGDTFDPLKDVTAYDNEDGIIKLTEANIAANDVNTNKEGTYNVTYKVTDKQGASSTKTITIDVIERIVIPENKPVDKTNNDTNSSNSSKVPQTGDINNIGVLAVTLMMSGSIVIGCNRKKSKANSLSEK”, the protein production entry is given as “failed”.

Consider “MLYLNFPSVSIRLFASDESNTLKRWPVFPRSLRQLVMLAFLLILLPLLVLAWQAWQSLNALSDQAALVNRTTLIDARRSEAMTNAALEMERSYRQYCVLDDPTLAKVYQSQRKRYSEMLDAHAGVLPDDKLYQALRQDLNNLAQLQCNNSGPDAAAAARLEAFASANTEMVQATRTVVFSRGQQLQREIAERGQYFGWQSLVLFLVSLVMVLLFTRMIIGPVKNIERMINRLGEGRSLGNSVSFSGPSELRSVGQRILWLSERLSWLESQRHQFLRHLSHELKTPLASMREGTELLADQVVGPLTPEQKEVVSILDSSSRNLQKLIEQLLDYNRKQADSAVELDNVELAPLVETVVSAHSLPARAKMMHTDVDLKATACLAEPMLLMSVLDNLYSNAVHYGAESGNICLRSSLHGARVYIDVINTGTPIPQEERAMIFEPFFQGSHQRKGAVKGSGLGLSIARDCIRRMQGELYLVDESGQDVCFRIELPSSKNTK”, for which the protein production entry is “failed”.

On to “MLYNSEVITYERAPKSEKDTKVENIKKLFILKVLIYAVSSFAISRVVMINSMVPFGIAFLACVLIYKKNDKASFLAAVGSLVGYISISGEVKDSVMYEIGVIIITLLMVVMKEKEDIKKLVTSAIFLLIEFIMFKILVEKLTVQSALIFTLIEIACVCSVYYIIRYGIICLDNIRTKHLFTNEEIISMSVLVALVISGTRNFDIYNVSIRNVLAMVFVIAISYIEGSSAGAAGGIAIGAIIGMNSSDVMIYIGVFGFLGFIAGVFKDFGKWITAGVYLIIFLIIIIYCKNHVDFSLMEAAITCIIFAGIPNKLYKKMECEFNWDRKQSDITNRYIEKMKDIFVKKLENFSEVLFTMSTTLNNLADNDKLTMKNKSCRLVENLADRVCGKCNMNSICWKREIYYTYAAFEELIQNFQEGINKIPDEIERKCVRRKELIKHTDMIINDYIMNEMWRMQVCSGREFMSAQVKNIGTSVENIIDEFSNELKFNVDVEEKIIRLLNKMGIPYKDIMCVNDKRNRNLVKLTMEACGGRQICVKHVLPVINEAVGTLMCVGDDGCSICPETNLCSVTFEETPKYYISSQIVRACKDGEEVNGDSYSFGKGKDGNYNIIISDGMGHGVQAEKESRAVIDLIEKFNESSLNRTMAINTVNSIMTLKFEEDEKFSTVDLCSVDLYSGDAEFIKVGGVTSFIKKKDKIEVINAKTLPIGVLDTVDMEVNHKKVENGDMIVMISDGVVNYDDENAGKVNWIIDFLKNSSANKPKELGEAMLKKAIELSGGKAKDDITIIISKVYSLY”, for which the protein production entry is “failed”.

“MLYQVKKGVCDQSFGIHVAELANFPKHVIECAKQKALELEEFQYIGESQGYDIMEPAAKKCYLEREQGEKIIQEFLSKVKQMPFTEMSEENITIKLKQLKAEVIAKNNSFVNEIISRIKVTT”: the protein production entry was “failed”.

“MMAEGGAADLDTQRSDIATLLKTSLRKGDTWYLVDSRWFKQWKKYVGFDSWDKYQMGDQNVYPGPIDNSGLLKDGDAQSLKEHLIDELDYILLPTEGWNKLVSWYTLMEGQEPIARKVVEQ”: the protein production result is “not failed”.

Turning to “MMAPPSQVQGRLSSSMNKSLALLTVTLLLGGCQSLIHKTPDGTPPVEDTAVETKAKPEKYGSFSEDSLYSLLVAELAGQRNRFDIALSNYVVQAQKTRDPGVSERAFRIAEYLGADQEALDTSLLWARSAPDNLDAQRAAAIQLARAGRYEESMVYMEKVLNGQGDTHFDFLALSAAETDPDTRAGLLQSFDHLLKKYPNNGQLLFGKALLLQQDGRPDEALTLLEDNSASRHEVAPLLLRSRLLQSMKRSDEALPLLKAGIKEHPDDKRVRLAYARLLVEQNRLDDAKAEFAGLVQQFPDDDDLRFSLALVCLEAQAWDEARIYLEELVERDSHVDAAHFNLGRLAEEQKDTARALDEYAQVGPGNDFLPAQLRQTDVLLKAGRVDEAAQRLDKARSEQPDYAIQLYLIEAEALSNNDQQEKAWQAIQEGLKQYPEDLNLLYTRSMLAEKRNDLAQMEKDLRFVIAREPDNAMALNALGYTLADRTTRYGEARELILKAHKLNPDDPAILDSMGWINYRQGKLADAERYLRQALQRYPDHEVAAHLGEVLWAQGRQGDARAIWREYLDKQPDSDVLRRTIKRLTGAETP”, the protein production result is given as “failed”.

In the case of “MMDAMTDPITFAATAAGRDAAHPLRDISFGEIGIATERKPDGTIYVRSTTTLTDYPVRITDRLHHFAETAPDRVFMAERNGEGGWRRISYAEMLRAAQTIASALIARGLSAERPVMILSGNSIDHAMVMFGALYAGVAMCPVSPPYSLVSKDYGKLRHIVGLLTPGLIFADDITAFAPAILATVPEDVELAATRGEVKGRKVTSLAELLATPEHPELAAKHEAIGHDTIAKFLLTSGSTGNPKAVINTQRMICANQVMIREAMAFLKDEPPVIVDWLPWNHTFGGNHNIGLTLFNGGSMYIDDGKPTPAGIASTIRNLREIAPTVYFNVPKGYESLLPVLREDQQLRKLFFSRLHAMFFSGASLAAHVWNGLDEVAVAETGARVPMLTGLGATETAPFFMSVTPQTSRSGHVGLPVPGNEAKLVPNNGKLEVRAKGPNITPGYWRAPELTDKAFDEEGFYKLNDALKPVDANDLSRGFDFDGRISEDFKLASGTWVSVGPLRAKFIAACASLVRDVVIAGLDRDYVTALAILDPDGCKLINATLPLEDLAGMAADHLIREAFRERFATLLTQATGSSNRVTRAVLLGEPLSIDKGEITDKGSVNQRAVLEYRASLIADLYADPPPAHVIALELEHHHHHH”, the protein production result is “not failed”.

For the sequence “MMDSCIRIAGIIGESIVDGPGIRLVVFAQGCPHHCPGCHNPETHAYEGGKSVAIAEILQRLAMNPLLDGITLSGGEPFAQAAGFALLAQSARQRGFHVMTYSGYTYEELTASSEQNPAWALLLEQTDLLVDGPFQLAERNLLLPFRGSENQRVIDVQESLRQGKVVLASVLEHHHHHH”, the protein production result is given as “failed”.

As for “MMDSTASRQDLLTAASMRFQNLIQWSGAVLLCALPLGVTLAATGGEPAAVTQVDIAPCLAAAAGDDMDKAKSACADVIDNEKTAKGDLIKALVARGALYARHDQVDRAIADDSRALSLDPTLADVFNARGELWLKKGDKPKAVQDFGAALKLDPNHEKAKANHKAMARELERIGAQMAVAGKPSFNCARAARAVEKAICGNRELADLDREIYGSHLRVIREAQSPAEARKIQREQDDFIARRNSGFGRPGYDLKKAMQDRLQQINGVDGY”, the protein production entry is listed as “failed”.

Turning to “MMDVDHKTNLTLRKYFYTLKSMKFTSITYTLSAVLLLGFSIPLVFAQTPDSGLSADCQMPIPPNLNSVDHFLGMGHFQQDCKKDLSAAVAAFSQAIKLNPQAEEPYYHRANSYAAMGNYQAAVTDYTEVIRQNTGRLGFSTGAYWHRARAYEKLGEKQKAISDLTQLIGNNSSLNAEEYLFRANLYKELGNKESAIADYKIAEKLLQQYADGVFHTGMMDTRYEQMLDQVRNELSSMGVAVTVPKTTTGNILRTIAKTEVERALNLARLQSQHPTVKNFDAQLQDLYKQLANTQPQVESGVVKNLIANAAYEKIDDLKIERSQLLTKYTLDSPIIGVIDSQTSELESLIHRNKF”, the protein production result is reported as “failed”.

“MMEERANLMHMMKLSIKVLLQSALSLGRSLDADHAPLQQFFVVMEHCLKHGLKVKKSFIGQNKSFFGPLELVEKLCPEASDIATSVRNLPELKTAVGRGRAWLYLALMQKKLADYLKVLIDNKHLLSEFYEPEALMMEEEGMVIVGLLVGLNVLDANLCLKGEDLDSQVGVIDFSLYLKDVQDLDGGKEHERITDVLDQKNYVEELNRHLSCTVGDLQTKIDGLEKTNSKLQEELSAATDRICSLQEEQQQLREQNELIRERSEKSVEITKQDTKVELETYKQTRQGLDEMYSDVWKQLKEEKKVRLELEKELELQIGMKTEMEIAMKLLEKDTHEKQDTLVALRQQLEEVKAINLQMFHKAQNAESSLQQKNEAITSFEGKTNQVMSSMKQMEERLQHSERARQGAEERSHKLQQELGGRIGALQLQLSQLHEQCSSLEKELKSEKEQRQALQRELQHEKDTSSLLRMELQQVEGLKKELRELQDEKAELQKICEEQEQALQEMGLHLSQSKLKMEDIKEVNQALKGHAWLKDDEATHCRQCEKEFSISRRKHHCRNCGHIFCNTCSSNELALPSYPKPVRVCDSCHTLLLQRCSSTAS”: the protein production result was “not failed”.

“MMETTAGDTLQQFVTAPVRTATYKRLLYLLLAFPLGVAYFVAFTTGSSLGLGLAFTLVGLPVLLVTLVATTGAAGLEARLATVLLDQEVATPPSPRETLDSDDGYLAAVWRFATEPTTWTSVAVVLLKFVYGIVAFVVTITGTALVGTLLAAPFVYDDPGVNYQFGQYAVSTLPEAIGVATVGVAGIWILCNVINVVAAAGGLMTDAFLSVGRERAA”: the protein production result is “failed”.

Consider “MMGIMSDPITILDSSDSLSRLSSESVGRLVVHRKDDLDIFPVNFVLDYSAEQPRVYFRTAEGTKLFSVNLNSDVLFEVDRFDDAEGWSVVLKGNAYVVRDTEEARHADTLGLKPWLPTLKYNFVRIDVREVSGRAFVFGEEPERY”, for which the protein production result was “not failed”.

As to “MMGRVAMLTGSRGLRYATVIALVAALVGGVYVLSSTGNKRTIVGYFTSAVGLYPGDQVRVLGVPVGEIDMIEPRSSDVKITMSVSKDVKVPVDVQAVIMSPNLVAARFIQLTPVYTGGAVLPDNGRIDLDRTAVPVEWDEVKEGLTRLAADLSPAAGELQGPLGAAINQAADTLDGNGDSLHNALRELAQVAGRLGDSRGDIFGTVKNLQVLVDALSESDEQIVQFAGHVASVSQVLADSSANLDQTLGTLNQALSDIRGFLRENNSTLIETVNQLNDFAQTLSDQSENIEQVLHVAGPGITNFYNIYDPAQGTLNGLLSIPNFANPVQFICGGSFDTAAGPSAPDYYRRAEICRERLGPVLRRLTVNYPPIMFHPLNTITAYKGQIIYDTPATEAKSETPVPELTWVPAGGGAPVGNPADLQSLLVPPAPGPAPAPPAPGAGPGEHGGGG”, the protein production entry is on record as “failed”.

Source of the values: a protein production outcome set (Wang et al. 2014).
